For this experiment, the target named is GST-Cks2 (Xenopus laevis Cks2α, wild type) (Xenopus laevis) (UniProt Q91879). Nature of the experiment: pull-down.
Chain of UniProt Q91879 (Q91879 whole entry): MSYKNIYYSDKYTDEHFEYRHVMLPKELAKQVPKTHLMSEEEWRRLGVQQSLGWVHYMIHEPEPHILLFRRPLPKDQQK

For orientation: EC50 means the concentration needed to bring the measured effect to its halfway point. A higher EC50 goes with lower potency in that assay. On to “Hyperphosphorylated Wee1A (Flag-Wee1A-WT phosphorylated in vitro by cyclin B1-Cdk1) (from UniProt Q8AYK6 1-571) (natural protein)”, for which the EC50 is 120 nM.
Then “Hypophosphorylated Wee1A (Flag-Wee1A-WT incubated with cyclin B1-Cdk1 without ATP) (from UniProt Q8AYK6 1-571) (natural protein)”, with 526 nM.

For the origin of these results see paper PMC4928677.
